Measurements published in patent US20050123549A1 (IMMUNOGEN, published 2005).

Columns and labels:
[1] = biological target: T1, Muc1 mucin carrying the CA6 sialoglycotope (human, UniProt P15941 24-1255, sialylated O-linked carbohydrate carrying the CA6 epitope; positions not stated); assay: competition flow cytometry on WISH cells; competitor 2 nM biotin-muDS6, streptavidin-DTAF
T1 construct: whole, on cells; Target of DS6 on CA6-positive human cell lines (flow cytometry) and in their lysates (dot blots, immunoprecipitation); also called CA6 antigen; DS6 antigen
Experimental: (§1) To confirm that the huDS6 versions retains the affinity of muDS6, competitive binding experiments were conducted. […] In some cases, the experimentally measured apparent Kd can vary simply because of the secondary reagent used to indirectly detect binding.

[2] = biological target: T1, Muc1 mucin carrying the CA6 …; assay: flow cytometry on WISH cells, direct binding
[3] = biological target: T1, Muc1 mucin carrying the CA6 …; assay: flow cytometry on Caov-3 cells
[4] = biological target: T1, Muc1 mucin carrying the CA6 …; assay: cell-based or functional assay
[5] = biological target: T1, Muc1 mucin carrying the CA6 …; assay: flow cytometry on WISH cells, detected with streptavidin-DTAF
Experimental: as §1

[6] = biological target: T1, Muc1 mucin carrying the CA6 …; assay: flow cytometry on WISH cells, detected with goat anti-mouse-FITC
[7] = biological target: T1, Muc1 mucin carrying the CA6 …; assay: flow cytometry on HeLa cells

B1: humanized DS6 antibody version 1.0 (antibody, human IgG1, V domains shown)
VH: QAQLQVSGAEVVKPGASVKMSCKASGYTFTSYNMHWVKQTPGQGLEWIGYIYPGNGATNYNQKFQGKATLTADTSSSTAYMQISSLTSEDSAVYFCARGDSVPFAYWGQGTLVTVSA
VL: EIVLTQSPATMSASPGERVTITCSAHSSVSFMHWFQQKPGTSPKLWIYSTSSLASGVPARFGGSGSGTSYSLTISSMEAEDAATYYCQQRSSFPLTFGAGTKLELKR
notes: also called huDS6 v1.0; v1.0
[1]
  EC50: 37.1 nM
[2]
  Kd: 3.71 nM

B2: humanized DS6 antibody version 1.2 (antibody, human IgG1, V domains shown)
VH: QAQLQVSGAEVVKPGASVKMSCKASGYTFTSYNMHWVKQTPGQGLEWIGYIYPGNGATNYNQKFQGKATLTADPSSSTAYMQISSLTSEDSAVYFCARGDSVPFAYWGQGTLVTVSA
VL: EIVLTQSPATMSASPGERVTITCSAHSSVSFMHWFQQKPGTSPKLWIYSTSSLASGVPARFGGSGSGTSYSLTISSMEAEDAATYYCQQRSSFPLTFGAGTKLELKR
notes: The light chain is the same as in v1.0; also called huDS6 v1.2; v1.2
[1]
  EC50: 22.6 nM
[2]
  Kd: 4.2 nM

B3: DS6 antibody-DM1 conjugate (antibody, V domains shown)
VH: QAYLQQSGAELVRSGASVKMSCKASGYTFTSYNMHWVKQTPGQGLEWIGYIYPGNGATNYNQKFKGKATLTADPSSSTAYMQISSLTSEDSAVYFCARGDSVPFAYWGQGTLVTVSA
VL: QIVLTQSPAIMSASPGEKVTITCSAHSSVSFMHWFQQKPGTSPKLWIYSTSSLASGVPARFGGSGSGTSYSLTISRMEAEDAATYYCQQRSSFPLTFGAGTKLELKR
modifications: DM1 linked through the SPP disulfide linker, DM1/Ab ratio 4.36; positions not given
notes: also called DS6-DM1; immunoconjugate
[3]
  Kd: 3.9 nM
[4]
  Clonogenic Assay Conjugate IC50 (M), BT-20 cells: > 3e-09 M
  Clonogenic Assay Conjugate IC50 (M), BT-483 cells: 1e-10 M
  Clonogenic Assay Conjugate IC50 (M), Caov-3 cells: 8e-10 M
  Clonogenic Assay Conjugate IC50 (M), Caov-4 cells: > 3e-09 M
  Clonogenic Assay Conjugate IC50 (M), HPAC cells: 1.8e-09 M
  Clonogenic Assay Conjugate IC50 (M), HPAF-II cells: > 3e-09 M
  Clonogenic Assay Conjugate IC50 (M), HeLa cells: 1.8e-09 M
  Clonogenic Assay Conjugate IC50 (M), Hs766T cells: > 3e-09 M
  Clonogenic Assay Conjugate IC50 (M), KB cells: 1.4e-09 M
  Clonogenic Assay Conjugate IC50 (M), OVCAR5 cells: > 3e-09 M
  Clonogenic Assay Conjugate IC50 (M), T-47D cells: > 3e-09 M
  Clonogenic Assay Conjugate IC50 (M), TOV-21G cells: 2e-09 M
  Clonogenic Assay Conjugate IC50 (M), WISH cells: 4.6e-10 M
  MTT Assay Conjugate EC50 (M), BT-20 cells: 1.44e-08 M
  MTT Assay Conjugate EC50 (M), Caov-3 cells: 1.61e-09 M
  MTT Assay Conjugate EC50 (M), HPAC cells: 1.84e-09 M
  MTT Assay Conjugate EC50 (M), HPAF-II cells: 1e-08 M
  MTT Assay Conjugate EC50 (M), Hs766T cells: > 3.2e-08 M
  MTT Assay Conjugate EC50 (M), KB cells: 3.01e-09 M
  MTT Assay Conjugate EC50 (M), OVCAR5 cells: 8.46e-07 M
  MTT Assay Conjugate EC50 (M), TOV-21G cells: 6.88e-09 M
  MTT Assay Conjugate EC50 (M), WISH cells: 6.69e-10 M
  MTT Assay Conjugate EC50 (M), ZR-75-1 cells: 9.45e-10 M

B4: chimeric DS6 (antibody, V domains shown)
VH: QAYLQQSGAELVRSGASVKMSCKASGYTFTSYNMHWVKQTPGQGLEWIGYIYPGNGATNYNQKFKGKATLTADPSSSTAYMQISSLTSEDSAVYFCARGDSVPFAYWGQGTLVTVSA
VL: QIVLTQSPAIMSASPGEKVTITCSAHSSVSFMHWFQQKPGTSPKLWIYSTSSLASGVPARFGGSGSGTSYSLTISRMEAEDAATYYCQQRSSFPLTFGAGTKLELKR
[2]
  Kd: 3.15 nM

B5: biotinylated murine DS6 (antibody, V domains shown)
VH: QAYLQQSGAELVRSGASVKMSCKASGYTFTSYNMHWVKQTPGQGLEWIGYIYPGNGATNYNQKFKGKATLTADPSSSTAYMQISSLTSEDSAVYFCARGDSVPFAYWGQGTLVTVSA
VL: QIVLTQSPAIMSASPGEKVTITCSAHSSVSFMHWFQQKPGTSPKLWIYSTSSLASGVPARFGGSGSGTSYSLTISRMEAEDAATYYCQQRSSFPLTFGAGTKLELKR
modifications: biotinylated; positions not given
notes: Murine DS6 IgG with biotin; also called biotin-muDS6; biotin-DS6
[5]
  Kd: 6.76 nM
[6]
  Kd: 2.8 nM

B6: DS6-SPP-MM1-202 taxoid conjugate (antibody, V domains shown)
VH: QAYLQQSGAELVRSGASVKMSCKASGYTFTSYNMHWVKQTPGQGLEWIGYIYPGNGATNYNQKFKGKATLTADPSSSTAYMQISSLTSEDSAVYFCARGDSVPFAYWGQGTLVTVSA
VL: QIVLTQSPAIMSASPGEKVTITCSAHSSVSFMHWFQQKPGTSPKLWIYSTSSLASGVPARFGGSGSGTSYSLTISRMEAEDAATYYCQQRSSFPLTFGAGTKLELKR
modifications: taxoid MM1-202 linked through the SSNPP linker, 2.86 drugs/antibody; positions not given
notes: also called taxane-conjugated DS6 antibody
[7]
  Kd: 1.24 nM
